Data set [1] can be described thus: folding stability dG unfold from chymotrypsin proteolysis; higher = more stable. The protocol: (§1)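 Folding stability of de novo designed mini-proteins (<80 aa, no Cys; designed by TrROS, TrMRF, ProteinMPNN and the joint model) was measured by cDNA display proteolysis with trypsin and chymotrypsin. Each protease was used at 11 concentrations in a threefold dilution series plus a no-protease condition. K50 was inferred by Bayesian fitting of sequencing counts, and dG unfold was derived against a sequence-predicted unfolded-state K50 (Tsuboyama et al. method). Sequences shown include variable-length N-terminal GS-type padding (SAGGSAGG...) inside a display construct carrying a PA tag. Rows were kept only if the AF2 dimer inter-PAE was >15, to exclude likely homo-oligomers.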

Data set [2] can be described thus: folding stability dG unfold (combined trypsin and chymotrypsin); higher = more stable. Here is the method: as §1

± gives the half width of the 95% confidence interval.

As to “KDFGITFKSPETIEEIAKKLGPNVVPTDIKKDPKGYVYAKIPTPDGKETDIVIPADKYSYEEAVKFAKEAES [r1_279_TrMRF]”, the “folding stability dG unfold” value is 0.228 ± 0.16 kcal/mol in data set [1] and -0.232 ± 0.13 kcal/mol in data set [2]. “MKITVTITSLGDKYTMTAEIELPDGTVETITKEFDSPEEAKKYIEKLVKELPPGLVEIEEIKFNPPDGTADS [r1_169_JUSTAS]”: the “folding stability dG unfold” value is 4.94 ± 0.6 kcal/mol in data set [1] and more than 6 kcal/mol in data set [2]. For the sequence “MTEKEIKEKAEEIAKKIAEEKGTEIKSAKIGGYVNVPVKVKEKLDENGKPVFEFEGKKVKVKVEVELKKKKS [r1_91_TrMRF]”, the results for the “folding stability dG unfold” value in data set [1] and in data set [2] were 0.567 ± 0.33 kcal/mol and less than -1 kcal/mol, respectively.

“SADPADVDVPLPVVGTAPALTSAPPGARLELVRLPDLGALARVDDGSVVALTVVVNDDGEVLAVAVEPAPSA [r9_1195_TrMRF]”: the results for the “folding stability dG unfold” value in data set [1] and in data set [2] were 0.894 ± 0.028 kcal/mol and 0.252 ± 0.066 kcal/mol, respectively. As to “SADPALEAEARARARAEARARGVERLEFELTREVTRESLVRFPGGELREVVERREVRYRVEVEVPPEAASAG [r14_232_JUSTAS]”, the “folding stability dG unfold” value in data set [1] amounted to 0.963 ± 0.077 kcal/mol; in data set [2], 0.366 ± 0.099 kcal/mol. Take “SADWLSVPFELLEEKPPPADKPLPEGSSAEVVVEDPLRPGEPIKLEVFYFPEKGILILRYEGKEIEIKVGSA [r9_243_JUSTAS]”: in data set [1], the “folding stability dG unfold” value is 0.673 ± 0.49 kcal/mol.

For the sequence “SAEKVTLTITVKMTEEELKEIAEKVGMKVEITVEKEEDGLYRVTLTFETPEEAEKAREALEKAGYKVEPSAG [r14_745_TrROS_Hall]”, the “folding stability dG unfold” value in data set [1] worked out at 4.57 ± 0.14 kcal/mol; in data set [2], 4.6 ± 0.16 kcal/mol. In the case of “SAGDKYRIKMTNPNGKKIEFEIPPNGYIKVRIRNPNNEHEMTIPIPPGETIEEALDNFPPYKISEIEPVSAG [r5_259_TrROS]”, the “folding stability dG unfold” value amounted to 0.795 ± 0.1 kcal/mol in data set [1] and 0.328 ± 0.082 kcal/mol in data set [2]. Consider “SAGEPNKIKVKVKIRMWMPRKDPDGQQAEPHPMPMTFEYKAPWEDAKNIIDSMPPGMQIDKIDKIEPLSAGG [r19_114_TrROS]”, for which the “folding stability dG unfold” value in data set [1] was 0.226 ± 0.3 kcal/mol; in data set [2] it was 0.109 ± 0.29 kcal/mol. In the case of “SAGESTLELTETSFPDGTTARVTTTRYPGLVRREATVTLPDGTVERLSAEVTLDEDEEVVTTSRSPLPSAGG [r19_385_JUSTAS]”, the “folding stability dG unfold” value in data set [1] is -0.247 ± 0.13 kcal/mol; in data set [2] it was -0.666 ± 0.45 kcal/mol. On the same counts, the results for “SAGGAPAAGDVVETETLRLERDEPDTITLTRLRTVEVVLPDGRVLTRTESETVRLEATDEEAVELAESSAGG [r13_544_TrMRF]” are 0.883 ± 0.22 kcal/mol and 0.397 ± 0.14 kcal/mol. For “SAGGDPALLLPVERKVTIEYTDEDGKKFTVGDVTVLPSPEILVKIPGTGETIRVPPSVVKKVEEVPESAGGS [r8_410_JUSTAS]”, the “folding stability dG unfold” value in data set [1] was -0.455 ± 0.18 kcal/mol; in data set [2] it was less than -1 kcal/mol. In the case of “SAGGDYDYEKDPNKYRVKERDKNGKILGEKEVEVKPPPIVIDGLPEEDLQEFQDKFPNIPITINPGAISAGG [r13_235_TrROS]”, the “folding stability dG unfold” value was -0.271 ± 0.5 kcal/mol in data set [1] and less than -1 kcal/mol in data set [2].

With “SAGGEDFTIRTRSPNGEEQKFPFKVDNVEIEPENNHYSIHIKDGKKLTIPPGGIDDIEPDDIKDWIKDSAGG [r13_925_TrROS]”, the “folding stability dG unfold” value in data set [1] was -0.0875 ± 0.29 kcal/mol; in data set [2], -0.373 ± 0.21 kcal/mol. “SAGGEELVIEFDSLEDALSAIYPRPDLDKVTLVVPGEGVPVVIPVTVTPPDLGVLGRSAEDRPVPLLGSAGG [r13_183_TrMRF]”: the “folding stability dG unfold” value is -0.825 ± 0.2 kcal/mol in data set [1] and less than -1 kcal/mol in data set [2]. On to “SAGGEIKIVVSAEELLRKEGKLSEEQRKKLEEALEEAKKLAEEGKEVKVEVEVVPPKPELKPEDKEKKSAGG [r13_731_TrROS_Hall]”, for which the “folding stability dG unfold” value in data set [1] was 0.214 ± 0.086 kcal/mol; in data set [2] it was less than -1 kcal/mol. Turning to “SAGGSAGGSMYYLIKTKPPDGKEEYIIDPLPPGGSIEDIIPEDLEIEEIKPFKSKEEAEKYLKSAGGSAGGS [r20_18_JUSTAS]”, the “folding stability dG unfold” value in data set [1] came out at 0.516 ± 0.46 kcal/mol. As for “SAGGSMKPSELANLIAEKLREKVDPNKTVRIVLEVGEGPVEFEIPSGKKIDIPENVPIKGYKVEVGSAGGSA [r2_391_TrMRF]”, the “folding stability dG unfold” value in data set [2] is less than -1 kcal/mol.

With “SAGGSMTLYVRLPDRTVEADEVTVPPNGPALVRYRITDPEGEEPEIVVEPEELAELFGLTPEEIEGSAGGSA [r2_262_TrMRF]”, the “folding stability dG unfold” value in data set [2] is less than -1 kcal/mol. Consider “SAGGSMTTTLDFSDDSTTTITTTPTPDSSSVRSITTTDASGNPLSSTTLNFDPQGNVTETTTSSAPSAGGSA [r2_260_JUSTAS]”, for which, in data set [2], the “folding stability dG unfold” value is less than -1 kcal/mol. “SAGGSMVVTTEPDGSVTVTTSASSPEEAKASVIAYLKEQGLKVKSLPVEVPPDGSVTVTLPVEPPLESAGGS [r8_253_JUSTAS]”: in data set [2], the “folding stability dG unfold” value was less than -1 kcal/mol. In the case of “SAGGSVRAVEVRLYRPEGDFPVIEIDVEAPASFPDDPELRERAARSVAGPLTRELLEELGLVPIGPSAGGSA [r2_306_TrMRF]”, in data set [2], the “folding stability dG unfold” value is -0.793 ± 0.52 kcal/mol. The same measure, in the same setting: the figure for “SAGGTIKDLLRELPGFDSVEVDEDSGVIYVRNPDRYYKIEIPVQKQPDDDGKDRPITPVKIEPYPPNSAGGS [r16_65_TrROS]” is less than -1 kcal/mol. For the sequence “SAGGTVEELLRRVPFVEEAVVDVDSGVAYVRVPDRYYVVRVPLVAEPDEDGVLRPRTPVEVEPFAPESAGGS [r16_65_TrMRF]”, in data set [2], the “folding stability dG unfold” value is less than -1 kcal/mol. With “SAGIKIEWDPDEGYIKIEMPYDSPAEANENIQEIHEKFGLKDVTAERDPNNGTVEHTIRIKNPEALKELSAG [r5_598_TrROS]”, in data set [2], the “folding stability dG unfold” value is less than -1 kcal/mol. The same measure, in the same setting: the figure for “SAGITIDELRNQPPKKRVTEVNWNPNQGNYRVEVVRPDPDGKPKKHEYEVNSPQQIRDKLKNGFDYIHISAG [r5_905_TrROS]” is less than -1 kcal/mol; for “SAGMQTKTLAETKENGKITVTTLTTTESGEETTVTETIEVGPVPIPPLTVEVRLRPDGRLEFEYHIPLSAGG [r19_172_JUSTAS]” it is -0.861 ± 0.51 kcal/mol; for “SAGMTTTETIEFPDSTTATVTSVEEGPTPNGTPVTTRTVTVTTYTPLRDADGKLLGEVPQTSTSTLTVASAG [r5_476_JUSTAS]” it is less than -1 kcal/mol.

On to “SAGMTVEEAAKEAIEKIPPTTKEVEFEIDLGEKPLIVKIENIPDPETNKPIPKVIVEDPDEPKKVEFEISAG [r5_236_TrMRF]”, for which the “folding stability dG unfold” value in data set [1] was found to be 0.104 ± 0.13 kcal/mol. Turning to “SAGMVIPATSEEEAEAFAKELGPETGYEVEIEKVPADEPVEDVDPNDILVVLPESGTVYRIHVRRPDEESAG [r5_173_TrMRF]”, the “folding stability dG unfold” value in data set [2] was less than -1 kcal/mol.

For “SAGSASPVVLKLTDPSSDKTYLVEVEVPEEEATWTLRDPSNGKEVEKVKMTLEELYAELKKKGLNPEPLSAG [r5_291_JUSTAS]”, the “folding stability dG unfold” value in data set [2] is less than -1 kcal/mol. “SAGSPADVVPLEIPFVTEDGSRVRATLLYDPATGEVTVPIETEDPALGRRAAAFARRLAEELGAPDVRPSAG [r5_99_TrMRF]”: in data set [2], the “folding stability dG unfold” value is less than -1 kcal/mol. Take “SAGYELKILKAEVKDGEIDIPILHPDGRPSTARIKVELVEGEDGIPRPVLKIEIPEEELKNSIPPELLKSAG [r5_462_TrMRF]”: the “folding stability dG unfold” value in data set [2] is less than -1 kcal/mol. As to “SAMLVVKNKKTKKPIEIKIDPSMTPEEIKKKIEKLPDIPEEQKKEVEEAIELYIKLLENPELAKKFEKESAG [r14_732_TrMRF]”, the “folding stability dG unfold” value in data set [2] is less than -1 kcal/mol. Consider “SAPDMQITDVEISEVEKNPDGKRTIEIWMRMDNYTYKATFPADKDGKIKKLSMERDPENNWMRHKIEIDSAG [r14_189_TrROS]”, for which the “folding stability dG unfold” value in data set [1] amounted to 0.283 ± 0.34 kcal/mol. Turning to “SAPYIRKVTYTTTFYPPDGTPVQSTKPTTEPVDPAEKDTTTTSTTALPDGGSVTTTSTTTVEPAEPALLSAG [r14_268_JUSTAS]”, the “folding stability dG unfold” value in data set [2] was less than -1 kcal/mol.

“SASPLVPVETEVLEEETLPDGTLRILTRRTVGDTTILDVRDRGPGGEILRESSSVDTSSNTTTRDVSVLSAG [r14_189_JUSTAS]”: in data set [2], the “folding stability dG unfold” value is less than -1 kcal/mol.

Take “SGINTEYTVTSVGPAGTPVTTELKTKIGNKEYSLTRTYQDPSGSVRLVNWKITSSPSGSSTISETVSPLPSA [r9_255_JUSTAS]”: in data set [2], the “folding stability dG unfold” value is less than -1 kcal/mol. Take “SGKVVGEKTYPVSDGSEGPAKATRDPDSLTFTITNKKGEVIKTIKVPKNAGVEKVFDIKVSPDEFKGLNLSA [r9_215_JUSTAS]”: the “folding stability dG unfold” value in data set [2] was less than -1 kcal/mol. In the case of “SGSMVVVPESDLEAAIATARALVAAGEDTLLFFSPEAREAVQRAVPEVRVEPVPGVPPTPPRPESVARLRSA [r9_639_JUSTAS]”, the “folding stability dG unfold” value in data set [2] was less than -1 kcal/mol.

For “SMELLEAVKKGVKTVTVLLKPGDEEKVKLAAELPVNIVLKASPEISEEVFKKIPGINLTEVKPLSPEELPSA [r9_671_JUSTAS]”, the “folding stability dG unfold” value in data set [2] was less than -1 kcal/mol. As to “SMITPEDLEALKAAGVELVSRDPNNRVTLFDPATNTPIELEVEEVPPPPPVTFPGNGPSVEERRAWLERRSA [r9_649_JUSTAS]”, in data set [2], the “folding stability dG unfold” value is less than -1 kcal/mol. Turning to “SMTIEELLKKHPNLSAEELAKLIADELKKKLPPGAKITVTVEEKDGKLVLKVEVEVNGKKITIELEIELKSA [r9_805_TrROS_Hall]”, in data set [2], the “folding stability dG unfold” value is more than 6 kcal/mol. As for “SMTITLEKTLPDGSKVTITIPITKVPGKPLYKATVTVTTTKPGGTPSSKTYTFDFTSEEEAVEKAKEILASA [r9_337_JUSTAS]”, the “folding stability dG unfold” value in data set [2] is more than 6 kcal/mol. With “SPPYRATVEMEAPNGEPIGEEEFPIKPGKNLMFMMPAPARVRIEIEDPDEGEPREQEYDPRSGMLHFPLKSA [r9_272_TrROS]”, in data set [2], the “folding stability dG unfold” value was less than -1 kcal/mol. Regarding “SRFRISVQHDGKPIDRAEVQDAIHDLMQESGRPITFEELADELAERPNYSVSIERWNPPGKPKGTRTIRVSA [r9_1045_TrROS]”, the “folding stability dG unfold” value in data set [2] was less than -1 kcal/mol. Consider “SSITFPVPKEEKEPDPDGDPHPRREPKPVPIPPDAIRDQIYNMIRTELRDAGLPDMTEEDIDDPEFIDRLSA [r9_263_TrROS]”, for which the “folding stability dG unfold” value in data set [2] was less than -1 kcal/mol.

“SSPPPSITVKSISREPATGTVTIPTSHPSGKHISVEWRSPDGTVTVVPPDKPTATLPAAPDWTLTKISVGSA [r9_113_JUSTAS]”: the “folding stability dG unfold” value in data set [2] is less than -1 kcal/mol. As for “SSPVVEAIEAEAAARGLPVEVSVSPDENGNPVVPVRVLTPEVLAAGEPRLAERVRPVTTDGRTVTVRVVASA [r9_489_JUSTAS]”, the “folding stability dG unfold” value in data set [2] was less than -1 kcal/mol.

The values above are taken from the supplement of paper PMC12764529.
